Assays:
Assay in all cases: co-IP
[1] = biological target: GFP-tagged VP1/2 with the region 6^S deletion combined with deletion of regions 1–4 (pseudorabies virus (PRV))
[2] = biological target: GFP-tagged VP1/2 regions 6 and 7 (deletion of regions 1–5) (pseudorabies virus (PRV))
[3] = biological target: GFP-tagged VP1/2[change]^S (deletion of region 6^S in the context of full-length VP1/2) (pseudorabies virus (PRV))
[4] = biological target: GFP-tagged VP1/2 with a single deletion of regions 1–4 (C terminus intact) (pseudorabies virus (PRV))
[5] = biological target: GFP-VP1/2[change] (pseudorabies virus (PRV))

## p50/dynamitin (from UniProt Q13561 1-401) (natural protein)
[1]
  fold decrease in binding against full-length VP1/2: 23 fold
[2]
  fold decrease in binding against full-length VP1/2: 11 fold
[3]
  fold decrease in binding against full-length VP1/2: 4 fold
[4]
  fold decrease in binding against full-length VP1/2: 9 fold

## p150/glued dynactin subunit (from UniProt Q14203 1-1278) (natural protein)
[5]
  efficiency of coimmunoprecipitation as percent of full-length GFP-VP1/2: 79%
[3]
  fold decrease in binding against full-length VP1/2: 5 fold
[4]
  fold decrease in binding against full-length VP1/2: 5 fold
